# Results taken from IntAct's records for PubMed 22322943.
# B1: Axin-2 (Mus musculus), O88566 (parent)
# chain: MSSAVLVTLLPDPSSSFREDAPRPPVPGEEGETPPCQPSVGKVQSTKPMPVSSNARRNEDGLGEPEGRASPDSPLTRWTKSLHSLLGDQDGAYLFRTFLEREKCVDTLDFWFACNGFRQMNLKDTKTLRVAKAIYKRYIENNSVVSKQLKPATKTYIRDGIKKQQIGSVMFDQAQTEIQAVMEENAYQVFLTSDIYLEYVRSGGENTAYMSNGGLGSLKVLCGYLPTLNEEEEWTCADLKCKLSPTVVGLSSKTLRATASVRSTETAENGFRSFKRSDPVNPYHVGSGYVFAPATSANDSELSSDALTDDSMSMTDSSVDGVPPYRMGSKKQLQREMHRSVKANGQVSLPHFPRTHRLPKEMTPVEPAAFAAELISRLEKLKLELESRHSLEERLQQIREDEEKEGSEQALSSRDGAPVQHPLALLPSGSYEEDPQTILDDHLSRVLKTPGCQSPGVGRYSPRSRSPDHHHQHHHHQQCHTLLPTGGKLPPVAACPLLGGKSFLTKQTTKHVHHHYIHHHAVPKTKEEIEAEATQRVRCLCPGGTDYYCYSKCKSHPKAPEPLPGEQFCGSRGGTLPKRNAKGTEPGLALSARDGGMSSAAGAPQLPGEEGDRSQDVWQWMLESERQSKSKPHSAQSIRKSYPLESACAAPGERVSRHHLLGASGHSRSVARAHPFTQDPAMPPLTPPNTLAQLEEACRRLAEVSKPQKQRCCVASQQRDRNHSAAGQAGASPFANPSLAPEDHKEPKKLASVHALQASELVVTYFFCGEEIPYRRMLKAQSLTLGHFKEQLSKKGNYRYYFKKASDEFACGAVFEEIWDDETVLPMYEGRILGKVERID
# Variants of: B1
# Conditions: with cdc20_human CDC20, Q12834
# cdc20_human CDC20, Q12834, sequence (Q12834 whole entry): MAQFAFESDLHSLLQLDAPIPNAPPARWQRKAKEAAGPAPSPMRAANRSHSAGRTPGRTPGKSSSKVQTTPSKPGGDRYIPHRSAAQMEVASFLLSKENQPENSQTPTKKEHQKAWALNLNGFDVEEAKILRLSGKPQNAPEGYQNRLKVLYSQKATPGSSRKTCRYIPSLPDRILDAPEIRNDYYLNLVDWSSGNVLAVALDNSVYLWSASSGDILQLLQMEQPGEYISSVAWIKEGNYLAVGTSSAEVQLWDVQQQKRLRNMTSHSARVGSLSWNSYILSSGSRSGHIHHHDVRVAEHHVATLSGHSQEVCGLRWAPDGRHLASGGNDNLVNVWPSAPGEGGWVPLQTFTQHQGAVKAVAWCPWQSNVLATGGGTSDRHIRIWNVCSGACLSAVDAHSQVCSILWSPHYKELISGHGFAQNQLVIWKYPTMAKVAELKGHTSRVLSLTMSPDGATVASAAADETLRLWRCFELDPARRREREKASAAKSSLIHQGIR
row,Variant,effect of a mutation on the interaction
1,R776A,decreasing interaction
2,L660A,decreasing interaction
3,L778A,decreasing interaction
4,R388A,decreasing interaction
5,R657A,decreasing interaction
6,R775A,decreasing interaction
7,L391A,decreasing interaction

# Variants of: B1
# Conditions: with cdc20_human CDC20, Q12834
# Remark: another data set of the same source
row,Variant,effect of a mutation on the interaction
1,R96A,decreasing interaction
2,L99A,decreasing interaction
